Assay results reported in patent publication US20200347101A1 (PAI LIFE SCIENCES, published 2020).
Where “and” joins values, the source holds several entries; their conditions need not be identical. Equal entries are not always repeated. Where two headings read alike, the source gives them in different places.

Key:
[1] = target: DSG2 on cells (HeLa cells in the viral inhibition assay; HT29 cells in the shedding assay) (UniProt Q14126); test: cell-based or functional assay
[2] = target: DSG2 on cells (HeLa cells in the viral inhibition assay; HT29 cells in the shedding assay) (UniProt Q14126); test: cell-based or functional assay; remark: listed apart in the source
[3] = target: DSG2 on cells (HeLa cells in the viral inhibition assay; HT29 cells in the shedding assay) (UniProt Q14126)
[4] = target: recombinant human DSG2 (human) (UniProt Q14126); test: SPR, comparison of the two formats
[5] = target: recombinant human DSG2 (human) (UniProt Q14126); test: SPR; summary table, Affinity to DSG2 (nM)
[6] = target: recombinant human DSG2 (human) (UniProt Q14126); test: SPR (Biacore 3000), hDSG2 immobilized, JO protein flowed
[7] = target: recombinant human DSG2 (human) (UniProt Q14126); test: SPR (Biacore 3000), JO protein immobilized, rhDSG2 flowed
[8] = target: T1, DSG2 on cells (HeLa cells in the viral inhibition assay; HT29 cells in the shedding assay) (UniProt Q14126 50-1118); test: cell-based or functional assay
T1 sequence: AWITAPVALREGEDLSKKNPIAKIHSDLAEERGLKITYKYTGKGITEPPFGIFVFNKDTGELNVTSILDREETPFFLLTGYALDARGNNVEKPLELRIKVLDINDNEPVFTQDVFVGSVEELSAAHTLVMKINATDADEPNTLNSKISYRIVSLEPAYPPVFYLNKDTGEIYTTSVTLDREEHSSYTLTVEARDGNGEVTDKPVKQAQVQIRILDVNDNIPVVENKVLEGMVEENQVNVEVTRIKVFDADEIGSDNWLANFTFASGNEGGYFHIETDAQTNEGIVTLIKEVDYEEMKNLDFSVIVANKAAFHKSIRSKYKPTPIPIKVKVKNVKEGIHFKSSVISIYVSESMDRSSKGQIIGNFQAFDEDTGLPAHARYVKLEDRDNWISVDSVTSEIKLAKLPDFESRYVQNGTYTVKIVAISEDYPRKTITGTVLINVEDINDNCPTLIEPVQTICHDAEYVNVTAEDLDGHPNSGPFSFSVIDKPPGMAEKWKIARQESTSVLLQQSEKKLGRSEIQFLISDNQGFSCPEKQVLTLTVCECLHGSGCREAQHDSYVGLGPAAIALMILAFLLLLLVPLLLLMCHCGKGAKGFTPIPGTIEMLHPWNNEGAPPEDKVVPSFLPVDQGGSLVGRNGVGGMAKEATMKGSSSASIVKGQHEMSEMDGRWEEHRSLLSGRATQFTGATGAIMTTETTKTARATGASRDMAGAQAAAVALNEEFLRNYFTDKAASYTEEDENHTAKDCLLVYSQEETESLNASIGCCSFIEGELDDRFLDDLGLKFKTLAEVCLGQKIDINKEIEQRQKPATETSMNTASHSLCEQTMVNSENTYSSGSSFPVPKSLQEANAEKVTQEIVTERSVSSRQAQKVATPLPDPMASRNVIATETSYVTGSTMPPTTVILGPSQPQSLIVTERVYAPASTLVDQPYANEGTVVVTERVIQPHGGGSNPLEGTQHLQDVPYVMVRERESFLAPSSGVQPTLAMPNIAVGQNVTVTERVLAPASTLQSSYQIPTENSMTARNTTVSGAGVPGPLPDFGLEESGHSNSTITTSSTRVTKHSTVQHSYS

[9] = target: T1, DSG2 on cells (HeLa cells in the viral …); test: cell-based or functional assay; remark: listed apart in the source
[10] = target: T2, recombinant human DSG2 (human, UniProt Q14126 50-609); test: SPR; summary table, Affinity to DSG2 (nM)
T2 construct: also called hDSG2; rhDSG2
T2 sequence: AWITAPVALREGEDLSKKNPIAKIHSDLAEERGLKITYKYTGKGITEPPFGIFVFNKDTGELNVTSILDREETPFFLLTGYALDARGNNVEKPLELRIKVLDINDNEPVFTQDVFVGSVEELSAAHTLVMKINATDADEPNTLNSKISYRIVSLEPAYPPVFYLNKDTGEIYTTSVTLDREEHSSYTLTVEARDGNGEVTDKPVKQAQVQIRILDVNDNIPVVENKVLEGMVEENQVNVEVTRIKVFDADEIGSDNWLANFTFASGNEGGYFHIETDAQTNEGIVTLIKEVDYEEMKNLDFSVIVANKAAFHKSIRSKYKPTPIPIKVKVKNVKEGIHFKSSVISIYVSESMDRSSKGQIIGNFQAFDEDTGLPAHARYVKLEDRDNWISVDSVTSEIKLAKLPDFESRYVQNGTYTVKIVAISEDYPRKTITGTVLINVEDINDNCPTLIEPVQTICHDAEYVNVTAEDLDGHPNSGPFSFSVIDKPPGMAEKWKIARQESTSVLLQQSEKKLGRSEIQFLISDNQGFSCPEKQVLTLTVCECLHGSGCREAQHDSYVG

[11] = target: T1, DSG2 on cells (HeLa cells in the viral …); test: cell-based or functional assay; remark: listed apart in the source
[12] = target: T1, DSG2 on cells (HeLa cells in the viral …); test: cell-based or functional assay; remark: listed apart in the source
[13] = target: T2, recombinant human DSG2; test: SPR (Biacore 3000), hDSG2 immobilized, JO protein flowed
[14] = target: T1, DSG2 on cells (HeLa cells in the viral …); test: cell-based or functional assay; remark: listed apart in the source
[15] = target: T1, DSG2 on cells (HeLa cells in the viral …); test: cell-based or functional assay; remark: listed apart in the source
[16] = target: T2, recombinant human DSG2; test: SPR, comparison of the two formats
[17] = target: T2, recombinant human DSG2; test: SPR (Biacore 3000), JO protein immobilized, rhDSG2 flowed

JO-4 (designed binder)
VIA IC50 [1]: 0.065 µg/mL | DSG2 shedding from HT29 cells relative to PBS treated monolayers (ELISA of the medium) [2]: 1.44 fold | VIA IC50 [2]: 0.067 µg/mL | IC50 (read off the curve); VIA, oxidized (non-reduced) JO4 [3]: 0.05 µg/mL | IC50 (read off the curve); VIA, reduced (DTT) JO4 [3]: 0.05 µg/mL

JO-4 (designed binder; other documents disagree on this pair)
fold faster on-rate, JO-4 immobilized against DSG2 immobilized [4]: 3.4 fold | fold improvement in affinity, JO-4 immobilized against DSG2 immobilized [4]: 20 fold | fold more stable dissociation rate, JO-4 immobilized against DSG2 immobilized [4]: 5.7 fold | Kd [5]: 0.58 nM | Kd [6]: 11.4 nM | koff [6]: 0.00264 s⁻¹ | Kd [7]: 0.58 nM | koff [7]: 0.00046 s⁻¹ | kon [7]: 790000 M⁻¹ s⁻¹

B1: GB10 (designed binder)
chain: MRGSHHHHHHCGSKVSALKEKVSALKEKVSALKEKVSALKEKVSALKEGSGGGSGGGSGGGSNSIALKNNTLWTGPKPEANSIIEYGKQNPDSKLTLILVKNGGIVNGYVTLMGASDYVNTLFKNKNVSINVELYFDATGHILPDSSSLKTDLELKYKQTADFSARGFMPSTTAYPFVLPNAGTHNENYIFGQSYYKASDGALFPLEVTVMLNKRLPDSRTSYVMTFLWSLNAGLAPETTQATLITSPFTFSYIREDD
VIA IC50 [8]: 0.026 µg/mL

B2: GB5 (designed binder)
chain: MRGSHHHHHHGSKNSIALKNNTLWTGPKPEANSIIEYGKQNPDSKLTLILVKNGGIVNGYVTLMGASDYVNTLFKNKNVSINVELYFDATGHILPDSSSLKTDLELKYKQTADFSARGFMPSTTAYPFVLPNAGTHNENYIFGQSYYKASDGALFPLEVTVMLNKRLPDSRTSYVMTFLWSLNAGLAPETTQATLITSPFTFSYIREDD
lower viral inhibition relative to JO-1 (VIA) [9]: 5 fold | VIA IC50 [8]: 0.241 µg/mL

B3: GB3 (designed binder)
chain: MRGSHHHHHHGSKVSALKEKVSALKEKVSALKEKVSALKEKVSALKEGSGGGSGGGSGGGSNSIALKNNTLWTGPKPEANSIIEYGKQNPDSKLTLILVKNGGIVNGYVTLMGASDYVNTLFKNKNVSINVELYFDATGHILPDSSSLKTDLELKYKQTADFSARGFMPSTTAYPFDLPNAGTHNENYIFGQSYYKASDGALFPLEVTVMLNKRLPDSRTSYVMTFLWSLNAGLAPETTQATLITSPFTFSYIREDDGGGSGGGSGGGSC
Kd [10]: 0.11 nM | DSG2 shedding from HT29 cells relative to PBS treated monolayers (ELISA of the medium) [9]: 1.52 fold | VIA, DTT-reduced against oxidized protein: reduction in viral inhibition [9]: ~2 fold | VIA IC50 [8]: 0.029 µg/mL | VIA IC50 [11]: 0.028 µg/mL | IC50 (read off the curve); VIA, oxidized (non-reduced) GB3 [12]: ~0.03 µg/mL | IC50 (read off the curve); VIA, reduced (DTT) GB3 [12]: ~0.06 µg/mL | Kd [13]: 0.11 nM | koff [13]: 0.0005 s⁻¹

B4: GB7/JOC-x (designed binder)
chain: RGSHHHHHHGSKNSIALKNNTLWTGPKPEANSIIEYGKQNPDSKLTLILVKNGGIVNGYVTLMGASDYVNTLFKNKNVSINVELYFDATGHILPDSSSLKTDLELKYKQTADFSARGFMPSTTAYPFDLPNAGTHNENYIFGQSYYKASDGALFPLEVTVMLNKRLPDSRTSYVMTFLWSLNAGLAPETTQATLITSPFTFSYIREDDGGGSGGGSGGGSC
notes: also called GB7 (ΔDD)
IC50 (read off the curve); VIA, unconjugated mixture JOC-x + poly(I:C) [14]: ~0.2 µg/mL | Kd [10]: 1.2 nM | DSG2 shedding from HT29 cells relative to PBS treated monolayers (ELISA of the medium) [9]: 1.39 fold | VIA IC50 [9]: 0.032 µg/mL and 0.055 µg/mL | VIA, DTT-reduced against oxidized protein: decrease in viral inhibition [9]: 5 fold | loss of viral inhibition of unconjugated JOC-x in the presence of poly(I:C) (VIA) [9]: ~3.9 fold | VIA IC50 [8]: 0.032 µg/mL | VIA IC50 [11]: 0.029 µg/mL | IC50 (read off the curve); VIA, oxidized (non-reduced) GB7 (JOC-x) [15]: ~0.02 µg/mL | IC50 (read off the curve); VIA, reduced (DTT) GB7 (JOC-x) [15]: ~0.2 µg/mL | fold reduction in affinity, GB7 immobilized against DSG2 immobilized [16]: 2 fold | Kd [17]: 1.19 nM | koff [17]: 0.00075 s⁻¹ | kon [17]: 630000 M⁻¹ s⁻¹ | Kd [13]: 0.58 nM | koff [13]: 0.00083 s⁻¹

B5: JOC-DOTA (designed binder)
chain: RGSHHHHHHGSKNSIALKNNTLWTGPKPEANSIIEYGKQNPDSKLTLILVKNGGIVNGYVTLMGASDYVNTLFKNKNVSINVELYFDATGHILPDSSSLKTDLELKYKQTADFSARGFMPSTTAYPFDLPNAGTHNENYIFGQSYYKASDGALFPLEVTVMLNKRLPDSRTSYVMTFLWSLNAGLAPETTQATLITSPFTFSYIREDDGGGSGGGSGGGSC
modifications: maleimido-mono-amide-DOTA conjugated to reduced JOC-x (free cysteine)
VIA IC50 [9]: 0.131 µg/mL

B6: JOC-DOTA (Eu) (designed binder)
chain: RGSHHHHHHGSKNSIALKNNTLWTGPKPEANSIIEYGKQNPDSKLTLILVKNGGIVNGYVTLMGASDYVNTLFKNKNVSINVELYFDATGHILPDSSSLKTDLELKYKQTADFSARGFMPSTTAYPFDLPNAGTHNENYIFGQSYYKASDGALFPLEVTVMLNKRLPDSRTSYVMTFLWSLNAGLAPETTQATLITSPFTFSYIREDDGGGSGGGSGGGSC
modifications: maleimido-mono-amide-DOTA conjugated to reduced JOC-x (free cysteine), complexed with europium ions
VIA IC50 [9]: 0.254 µg/mL

B7: JOC-poly(I:C) conjugate (designed binder)
chain: RGSHHHHHHGSKNSIALKNNTLWTGPKPEANSIIEYGKQNPDSKLTLILVKNGGIVNGYVTLMGASDYVNTLFKNKNVSINVELYFDATGHILPDSSSLKTDLELKYKQTADFSARGFMPSTTAYPFDLPNAGTHNENYIFGQSYYKASDGALFPLEVTVMLNKRLPDSRTSYVMTFLWSLNAGLAPETTQATLITSPFTFSYIREDDGGGSGGGSGGGSC
modifications: poly(I:C) linked through the crosslinker SMPB to the free cysteine on JOC-x
IC50 of the conjugate relative to the unconjugated protein (VIA) [9]: ~6.3 fold | VIA IC50 [9]: 0.203 µg/mL
